Measured values published in patent US20080009025A1, “PROTEIN KINASE REGULATION” (priority 1999, published 2008).
Where a chain is given by its changes, count along the chain named.

Assays:
PDK1-wt = target: T1, PDK1-wt (Homo sapiens, UniProt O15530); assay: Phosphorylation of AGC kinase substrates by PDK1 (32P, PhosphoImager); type: biochemical; conditions: for Relative phosphorylation of PDK1 substrates PDK1-wt +PIFtide: with PIFtide; for Relative phosphorylation of PDK1 substrates PDK1-wt +PIFtide / Relative phosphorylation of PDK1 substrates PDK1-wt —: PKB[S473D] rate with PtdIns(3,4,5)P3 = 100; for Relative phosphorylation of PDK1 substrates PDK1-wt —: without PIFtide
T1 construct: made in house; host or cells: human embryonic kidney 293 cells
T1 sequence (O15530 1-556): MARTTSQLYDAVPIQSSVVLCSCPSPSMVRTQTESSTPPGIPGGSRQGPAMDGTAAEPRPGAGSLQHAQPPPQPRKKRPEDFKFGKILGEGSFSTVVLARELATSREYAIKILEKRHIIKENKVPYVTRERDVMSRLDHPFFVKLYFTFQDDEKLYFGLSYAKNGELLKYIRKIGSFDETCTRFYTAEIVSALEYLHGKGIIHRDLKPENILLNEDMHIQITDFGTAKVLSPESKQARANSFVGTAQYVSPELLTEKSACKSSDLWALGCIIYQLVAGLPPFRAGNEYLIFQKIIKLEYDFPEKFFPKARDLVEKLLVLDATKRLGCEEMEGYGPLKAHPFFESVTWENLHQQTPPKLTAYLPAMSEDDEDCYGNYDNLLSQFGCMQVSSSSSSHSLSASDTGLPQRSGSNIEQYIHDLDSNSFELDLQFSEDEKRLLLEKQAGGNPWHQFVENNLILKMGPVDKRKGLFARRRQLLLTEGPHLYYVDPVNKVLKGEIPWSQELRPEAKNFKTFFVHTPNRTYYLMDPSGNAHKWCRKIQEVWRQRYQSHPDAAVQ
Method: (§1) Phosphorylation of AGC kinase substrates by PDK1. The phosphorylation of PDK1 substrates was performed in a final volume of 20 μl in a buffer containing 50 mM Tris-HCl pH 7.5, 0.1% (by vol) 2-mercaptoethanol, 10 mM magnesium chloride, 100 μM [γ-^32P]ATP (˜1000 c.p.m./pmol), 0.5 μM microcystin-LR, 0.6 μM AGC kinase substrate and 0.6 to 30 nM wild type PDK1 or the indicated mutant of PDK1.
(§2) Relative phosphorylation of PDK1 substrates. PDK1 substrates were phosphorylated in vitro, subjected to SDS-PAGE, and radioactivity associated with the bands measured using a Phospho-Imager and known amounts of ATP as standard. The phosphorylation rate of PKB[S473D] in the presence of PtdIns (3,4,5)P3 was 2.6 mol/mol PDK1/min and was taken as the relative value of 100. Average values from a representative experiment performed in duplicates are shown.

PDK1-L155E = target: T2, PDK1-L155E (Homo sapiens, UniProt O15530, L155E); assay: as above; type: biochemical; conditions: PKB[S473D] rate by PDK1-wt = 100; for Relative phosphorylation of PDK1 substrates PDK1-L155E +PIFtide: with PIFtide; for Relative phosphorylation of PDK1 substrates PDK1-L155E —: without PIFtide
T2 construct: made in house; host or cells: human embryonic kidney 293 cells
T2 sequence (O15530 1-556 L155E): T1 sequence (O15530 1-556) with L155E
Method: as §1, §2

PDK1 [1] = conditions: ref [22]; cited from earlier work
PDK1 [2] = target: T3, PDK1 (Homo sapiens, UniProt O15530); assay: Phosphorylation of GST-p70 S6K-T2 by PDK1 in vitro (32P autoradiography); type: biochemical; parameters: made in house; host or cells: 293 cells or E. coli; conditions: GST fusion 1.5 μM; GST-PDK1 50 nM
T3 sequence (O15530 1-556): T1 sequence (O15530 1-556)
Method: FIG. 1. PIF prevents PDK1 from phosphorylating p70 S6K in vitro. GST-p70 S6K lacking the C-terminal 104 amino acids (GST-p70 S6KT2) (1 μg) was incubated for 30 min at 30° C. with Mg [γ^32P] ATP and GST-PDK1 (50 nM) in the presence or absence of either wild type (wt) GST-PIF or D978A GST-PIF (1.5 μM), or the indicated PIF peptides (4 μM) in a final volume of 20 μl. The reactions were terminated by making the solutions 1% in SDS, the samples subjected to SDS-polyacylamide gel electrophoresis, and the phosphorylation assessed by autoradiography of the gel. The position in the gel where GST-p70 S6KT2 (73 kDa) migrates is indicated with an arrow. The only other ^32P-labelled protein on the gel which is not shown, corresponded to autophosphorylation of PDK1 and contained ˜10 fold lower levels of ^32P-radioactivity than that of the GST-p70 S6T2 phosphorylated by PDK1 in the absence of PIF. A high amount of PDK1 is used in this experiment to achieve a near maximal phosphorylation of GST-p70 S6T2. If the reactions were carried out at a 10-fold lower concentration of PDK1 under conditions where the phosphorylation of GST-p70 S6T2 by PDK1 is linear with time and the amount of substrate used, then PIF still prevented the phosphorylation of GST-p70 S6T2 (data not shown). wt indicates wild type and PSer indicates phospho-serine. The results of a duplicate experiment for each condition are shown, and similar findings were obtained in five separate experiments.
Preparation of insect cell His-p70 S6K. p70 S6K with a His-epitope tag at its N-terminus lacking the carboxy terminal 104 residues is termed p70 S6K-T2. In order to prepare wild type and the mutant 412E-p70 S6K-T2 the cDNA for these constructs was amplified by PCR from the pMT2 vector encoding these forms of p70 S6K [6] using the following oligonucleotides: 5′-AGGATCCACCATGCACCATCACCATCACCATATGAGGCGAGCAAGGAGGCGG-3′ and 5′-GCGGCCGCTCAACTTTCAAGTACAGATGGAGCC-3′. The PCR products were then subcloned into the BamH1/Not1 sites of the pFASTBAC 1 vector and this vector was used to generate recombinant baculovirus using the Bac-to-Bac system (Life Technologies Inc). The resulting viruses, encoded p70 S6K-T2 or 412E-p70 S6K-T2 with an N-terminal hexahistidine sequence, and was used to infect Sf21 cells (1.5×10^6/m) at a multiplicity of infection of 5. The infected cells were harvested 72 h post-infection and the His-p70 S6K proteins purified by Ni^2+/NTA (nitrilotriacetic acid)-agarose chromatography as described previously for PKBβ [25]. […]

p70 S6K = assay: IGF1-induced activation and Thr412 phosphorylation of HA-p70 S6K in co-transfected 293 cells; type: cell-based, human; conditions: 293 cells
Method: FIG. 3. PIF inhibits p70 S6K activation and phosphorylation at Thr252 and Thr412. 293 cells were co-transfected with constructs expressing the wild type (wt) full length HA-p70 S6K (A) or the full length HA-T412E p70 S6K (B) with either GST-PIF, GST-F977A-PIF, or GST. 24 h post transfection the cells were serum starved for 16 h and them stimulated for 40 min with 100 nM IGF 1. The cells were lysed and HA-p70 S6K was immunoprecipitated and assayed as described in methods. Protein from each lysate (10 μg for the HA blots or 20 μg for the T412-P blot) was electrophoresed on a 10% SDS/polyacrylamide gel and immunoblotted using HA-antibody or the T412-P antibody. The T412-P antibody was incubated with either the synthetic peptide (10 μg/ml) corresponding to residues 401 to 418 of p70 S6K phosphorylated at Thr412 (phosph-412E peptide), or the unphosphorylated peptide (de-phospho-Thr412 peptide). The T412-P antibody consistently recognises a protein termed “non specific band” in cell lysates which migrate at (75 kDa) derived from non transfected and transfected cells. […] It is not co-immunoprecipitated with HA-p70 S6K (date not shown). The HA-p70 S6K activities shown are the average ±SEM for a single experiment carried out in triplicate. Similar results were obtained in 8 separate experiments (A) and 2 experiments (B). The immunoblotting was carried out in 3 separate experiments with similar results.
Transient Transfection Experiments. The DNA constructs encoding for the wild type and mutant forms of HA-p70 S6K in the pMT2 vector used in this study have been described previously. […] The constructs used to express GST-PIF and the mutant GST-F977A-PIF [22] are in the pEBG2T vector. The empty pEBG2T vector was used to express GST protein in control experiments. DNA constructs used in this study were purified from bacteria using the Qiagen plasmid Mega kit according to the manufacturer's protocol.
293 cells cultured on 10 cm diameter dishes in Dulbecco's Modified Eagle's Medium containing 10% (by vol) foetal bovine serum, were transfected with 2 μg of DNA construct encoding either wild type or mutant HA-p70 S6K or HA-PKBα, and 10 μg of DNA construct encoding either GST-PIF, GST-F977A-PIF, GST, Myc-PDK1, kinase-dead Myc-PDK1, or the empty pCMV5 vector using a modified calcium phosphate method. 24 h post transfection the cells were deprived of serum for 16 h, and exposed to IGF1 (100 nM) for the time indicated. The cells were lysed in 1 ml of lysis buffer (50 mM Tris/HCl pH 7.5, 1 mM EDTA, 1 mM EGTA, 1% (by vol) Triton X-100, 1 mM sodium orthovanadate, 10 mM sodium β-glycerophosphate, 50 mM NaF, 5 mM sodium pyrophosphate, 1 μM microcystin-LR, 0.27 M sucrose and protease cocktail tablets), cleared by centrifugation, and 50 μg of protein was subjected to immunoprecipitation with anti HA monoclonal antibody. The protein concentrations of the lysates were determined by the Bradford method.
Kinase assays. The HA-p70 S6K or HA-PKBα immunoprecipitates were washed and assayed for kinase activity using the peptide Crosstide (GRPRTSSFAEG) as described previously for PKBα [28]. One unit of activity, U, was that amount which catalysed the phosphorylation of 1 nmol of substrate in one minute.
Immunoblotting for dephosphorylated and Thr412-phosphorylated p70 S6 kinase. Cell lysates were made 1% SDS and the indicated amounts of protein were subjected to SDS/Polyacrylamide gel electrophoresis, subsequently transferred to nitrocellulose and immunoblotted using the indicated monoclonal antibody or the T412-P phospho-specific antibody (0.4 μg/ml) in 50 mM Tris/HCl pH7.5, 0.15M NaCl, 0.5% (by vol) Tween and 10% (by mass) skimmed milk. Detection was performed using the enhanced chemiluminescence reagent (Amersham Pharmacia Biotech).

Row | Substance | Relative phosphorylation of PDK1 substrates PDK1-wt +PIFtide (PDK1-wt) | Relative phosphorylation of PDK1 substrates PDK1-wt — (PDK1-wt) | Relative phosphorylation of PDK1 substrates PDK1-L155E +PIFtide (PDK1-L155E) | Relative phosphorylation of PDK1 substrates PDK1-L155E — (PDK1-L155E) | affinity for PDK1 compared with wild type PIF (PDK1 [1]) | effect on phosphorylation of GST-p70 S6K-T2 by PDK1 (PDK1 [2]) | phosphorylation rate (PDK1-wt; in the presence of PtdIns (3,4,5)P3) [mol/mol PDK1/min] | HA-p70 S6K activity after IGF1 stimulation (p70 S6K; 100 nM IGF1 40 min) | IGF1-induced phosphorylation of HA-p70 S6K at Thr412 (p70 S6K; T412-P antibody)
1 | FL-PKB: full length GST-tagged PKBα | 19.3 | 28 | 35 | 35 |  |  |  |  | 
2 | GST-D978A-PIF: mutant GST-PIF in which the amino acid equivalent to Asp978 in PRK2 is mutated to Ala |  |  |  |  | markedly reduced affinity | poorly inhibited |  |  | 
3 | FL-PKB 473D: full length PKBα with Ser473 mutated to Asp | 85.4 | 100 | 162 | 178 |  |  | 2.6 |  | 
4 | GST-F977A-PIF: mutant form of GST-PIF which interacts with PDK1 weakly |  |  |  |  |  |  |  | substantially activated | still occurred but a lower level
